Results from the nanobody polyreactivity screen of Harvey et al. (2022).

Test: yeast display, Sf9 membrane polyspecificity reagent, FACS + sequencing; frameworks hold sequencing errors
In short: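 Sorting gates, low and high (top ~1%), were placed on anti-HA fluorescence to track expression and on streptavidin fluorescence to track reagent binding. A clone's polyreactivity label is taken from the gate it came out of. The reagent was 10% biotinylated, detergent-solubilized Sf9 membrane, applied for 1 hour at 4 °C to galactose-induced yeast display cells.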

Sequence	polyreactivity (PSR sort gate)
QVQLVESGGGLVQAGGSLRLSCAASGSTFYQYAMGWYRQAPGKERELVAVITGSGGSTYYADSVKGRFTISRDNAKNTVYLQMNSLKPEDTAVYYCAAGARYFIYRTTSLGGNYWGQGTQVTVSS	high polyreactivity
QVQLVESGGGLVQAGGSLRLSCAASGSTFYRNALGWYRQAPGKERELVARISSRGGRTSYADSVKGRFTISRDNAKNTVYFQMNSLKPEDTAVYYCAADYYVNRIQRYDYWGQGTQVTVSS	high polyreactivity
QVQLVESGGGLVQAGGSLRLSCAASGSTFYRNAMGAYRQAPGKDREFVAAISFRGGGTYADSVKGRCTISRDNANNTVYLQMNSLKPEDTAVYYCAADHLSYRRRYEYWGQGTQVTVSS	low polyreactivity
QVQLVESGGGLVQAGGSLRLSCAASGSTFYRNAMGWYRPAPGKERELVAAISQRGGRTYYADSVKGRFTISRDNAKNTVYLQMNSLKPEDTAVYYCNKFRGINHLYDMNYWGQGTQVTVSS	high polyreactivity
QVQLVESGGGLVQAGGSLRLSCAASGSTFYRNAMGWYRQAPGKEREFVADITLGGGSTYYADSVKGRFTISRDNAKNTVYLQMNSLTPEDTAVYYCAVVYWQLNYDYWGQGTQVTVSS	low polyreactivity
QVQLVESGGGLVQAGGSLRLSCAASGSTFYRNAMGWYRQAPGKERELVAAINSTDSTNYADSVKGLFTISRDNAKNTVYLQMNSLKPEDTAVYYCAAVGDNLATAEYDYWGQGTQVTLSS	low polyreactivity
QVQLVESGGGLVQAGGSLRLSCAASGSTFYRNAMGWYRQAPGKERELVAAISRGSRTYYADSVKGRFTISRDNAKNTVYLQMNSLKPEDTAVYNCAARAGARDTLHDYWGQGTQVTVSS	high polyreactivity
QVQLVESGGGLVQAGGSLRLSCAASGSTFYRNAMGWYRQAPGKERELVAVISISDGSTYADSVKGRFTISRDNAKNTVYLQMNSLKPEDTAVYYCAKVLNPLDYYDFDYWGQGTQVTVSS	low polyreactivity
QVQLVESGGGLVQAGGSLRLSCAASGSTFYRYAMAWYRPAPGKERELVAAITRGGGRTYYADSVKGRFTISRDNAKNTVYLQMNSLKPEDTAVYYCNSASPYYDSWGQGTQVTVSS	high polyreactivity
QVQLVESGGGLVQAGGSLRLSCAASGSTFYRYAMGWYRQAPGKERELVAAISRGGGRTNYADSVKGRFTISRDNAKNTVYLQMNSLKPEDTAVYYCAADDTYTRYDYWGQGTQVTVSS	high polyreactivity
QVQLVESGGGLVQAGGSLRLSCAASGSTFYSNAMGWYRQAPGKERELVAAINYSGGRTYYADSVKGRFTLSRDNAKNTVYLQMNSLKPEDTAVYYCNAQFYNVRGYYIGEYWGQGTQVTVSS	high polyreactivity
QVQLVESGGGLVQAGGSLRLSCAASGSTFYSYAIGWYRQAPGKERELVADISYSDGSTYYADSVKGRFTISRDYAKNTVYLQMNSLKPEDTAVYYCDAYALSYFKIMDYWGQGTQVTVSS	low polyreactivity
QVQLVESGGGLVQAGGSLRLSCAASGSTFYSYAMGWSRQAPGKERELVARISGSGGSTYYADSVKGRFTISRDTAKNTVYLQMNSLKPEDPAVYYCAADDIYKYYQYYAFPYYRYDYWGQGTQVTVSS	low polyreactivity
QVQLVESGGGLVQAGGSLRLSCAASGSTFYSYAMGWYRQAPGKERELVAAISWDGGLTYYADSVKGRFTISRDTAKNTVYLQMNSLKPEDTAVYYCAAAYPTYRHYYWGQGTQVTVSS	low polyreactivity
QVQLVESGGGLVQAGGSLRLSCAASGSTFYSYAMGWYRQAPGKERELVAAITKGGGSTYYADSVKGRFTISRDNAKNTVYLQMNSLKPEDTAVYYCAAPGLYWYYTRSGYDYWGQGTQVTVSS	high polyreactivity
QVQLVESGGGLVQAGGSLRLSCAASGSTFYSYVMGWYRQAPGKERELVAVISNDGSTNYADSVKGRFTISRDNAKNTVYLQMNSLKPEDTAVYYCNAEWTRDFYEYDYWGQGTQVTVSS	low polyreactivity
QVQLVESGGGLVQAGGSLRLSCAASGSTFYTNAMGLYRQAPGKERELVAAISWSAGSTYYADSVKGRFTISRDNAKNTVYLQMNSLKPEDTAVYYCAAYYWYKWGYKYGYWGQGTQVTVSS	high polyreactivity
QVQLVESGGGLVQAGGSLRLSCAASGSTFYTNAMGWYTQAPGKERELVAAISGSGGSTYYADSVKGRFTISRDNAKNTVYLQMNSLKPEDTAVYYCAARSRYYDTRFDYWGQGTQVTVSS	low polyreactivity
QVQLVESGGGLVQAGGSLRLSCAASGSTFYTNTMGWYRQAPGKERELVADINGSGGSTYYADSVKGRFTISRDNAKNTVYLQMNSLKPEDTAVYYCAAGSWQVAIRYDYWGQGTQVTVSS	low polyreactivity
QVQLVESGGGLVQAGGSLRLSCAASGSTFYTYAMGWYRQAPGKEMELVAAIRSAGSTYYADSVKGRFTISRDNAKNTVYLQMNSLKPEDTAVYYCNTVARSSVGYEYWGQGTQVTVSS	high polyreactivity
QVQLVESGGGLVQAGGSLRLSCAASGSTFYTYAMGWYRQAPGKERELVAAITSGGSTYYADSVKGRFTISRDNAKNTVYLQMNSLKPEDTAVYYCAARPYPHSAYEGDYWGRGTQVTVSS	low polyreactivity

Sequence	polyreactivity (PSR sort gate)
QVQLVESGGGLVQAGGSLRLSCAASGSTFYTYAMGWYRQAPGKERELVAAITYSGGTTYYADSVKGRFTISRDNAKNTVYLQMNSLKPEDTAVYYCNTRSYYYSDDYWGQGTQVTVSS	low polyreactivity
QVQLVESGGGLVQAGGSLRLSCAASGSTFYTYDMGWYRQAPGKERELVASITSGGSTNYADSVKGRFTISRDNAKNTVYLQMNSLKPEDTAVYYCAVGTYTIYSGTLYDYKYYWGQGTQVTVSS	low polyreactivity
QVQLVESGGGLVQAGGSLRLSCAASGSTFYTYTMGWYRQAPGKERELVAAISSRGVSTYYADSVKGRFTISRDNAKNTVYLQMNSLKPEDTAVYYCAVSRIVDFGQKMYYWGQGTQVTVSS	high polyreactivity
QVQLVESGGGLVQAGGSLRLSCAASGSTFYTYTMGWYRQAPGKERELVAAISSSGGDTYYADSVKGRFTISRDNAKNTVYLQMNSLKPEDTAVYYCAALGAFPSLEFDYWGQGTQVTVSS	low polyreactivity
QVQLVESGGGLVQAGGSLRLSCAASGSTFYVNAMGSYRKAPGKEMEFVAAITWNSGSTYYADSVKGRFTISRDNANYTVYLQMNSLKPEDTAVYYCAAVLSVRDYGYDYWGQGTQVTVSS	low polyreactivity
QVQLVESGGGLVQAGGSLRLSCAASGSTFYVNAMGWYRQAPGKERELVAAITKSGGNTYYADSVKGRFTISRDNAKNTVYLQMNSLKPEDTAVYYCAKKYPRDMDYWGQGTQVTVSS	high polyreactivity
QVQLVESGGGLVQAGGSLRLSCAASGSTFYVNAMGWYRQAPGKERELVARITENGGITYYADSVKGRFTISRDNAKNTVYLQMNSLKPEDTAVYYCNTVQYRNEMGYWGQGTQVTVSS	high polyreactivity
QVQLVESGGGLVQAGGSLRLSCAASGSTFYVNAMGWYRQAPGKERELVATISSGGSTNYADSVKGRFTISRDNAKNTVYLQMNSLKPEDTAVYYCAKEYGSIIPYDYWGQGTQVSVSS	low polyreactivity
QVQLVESGGGLVQAGGSLRLSCAASGSTFYVNDMGWYRQAPGKERELVATISSGSSTYYADSVKGRFTISRDNAKNTVYFQMNSLKPEDTAVYYCAADGVAEEGFDAPYDYWGQGTQVTVSS	low polyreactivity
QVQLVESGGGLVQAGGSLRLSCAASGSTFYVNTMGWYRQAPGKERELVAAITDSGVGTYADSVKGRFTISRDNAKNTVYLQMNSLKPEDTAVYYCAADGVTRDYDYWGQGTQVTVSS	low polyreactivity
QVQLVESGGGLVQAGGSLRLSCAASGSTFYVYAMGVYRQAPGKERELVAAIRGGGSTNYADSVKGRFTISRDNAKNTVYLQMNSLKPEDTAVYYCAARYRSLRYRPSGYSYNYWGQGTQVTVSS	high polyreactivity
QVQLVESGGGLVQAGGSLRLSCAASGSTFYVYAMGWYRKAPGKEREFVAVITTSGGTTYYADSVKGRFTISRDNAKNTVYLQMNSLKPEDTAVYYCNAGVGYYSLPYDYWGQGTQVTVSS	low polyreactivity
QVQLVESGGGLVQAGGSLRLSCAASGSTFYVYAMGWYRQAPGKDRELVAAITFSGGSTYADSVKGRFTISRDNAKNTVYLQMNSLKPEDTAVYYCATDERGRYTVVYVDEFLYDYWGQGTQVTVSS	low polyreactivity
QVQLVESGGGLVQAGGSLRLSCAASGSTFYVYAMGWYRQAPGKERELVAAIDRGSSTYADSVKGRFTISRDNAKNTVYLQMNSLKPEDTAVYYCAAEKERDEEYDYWGQGTQVTVSS	low polyreactivity
QVQLVESGGGLVQAGGSLRLSCAASGSTFYVYAMGWYRQAPGKERELVAAITSGDDTNYADSVKGRFTISRDNAKNTVYLQMNSLKPEDPAVYYCAAEAVGYGSPRGYYWYDYWGQGTQVTVSS	high polyreactivity
QVQLVESGGGLVQAGGSLRLSCAASGSTFYVYAMGWYRQAPGKERELVAAITSGSSTYADSVKGRFTISRDNAKNTVYLQMNSLKPEDTAVFYCNALSRTAWSYYLYPSTPFDYWGQGTQVTVSS	low polyreactivity
QVQLVESGGGLVQAGGSLRLSCAASGSTFYVYDMGWYRQAPWKERELVAAISSGAGSTYYADSVKGRFTSSRDNAKNTVYLKLNSLKRKIPRSITALLFTVNGGGSRSHDYWAQGTQVTVSS	low polyreactivity
QVQLVESGGGLVQAGGSLRLSCAASGSTFYWNALGWYRQAPGKERELVADIDGRGGSTYYADSVKGRFTISRDNAKNTVYLQMNSLKPEDTAVYYCAARAPFLSVPSELDYWGQGTQVTVSS	low polyreactivity
QVQLVESGGGLVQAGGSLRLSCAASGSTFYWNGMGWYRQAPGKERELVAAITKSGSRTYYADSVKGRFTISRDNAKNTVYLQMNSLKPEDTAVYYCAAVNYIYTGGGTYYYWGQGTQVTVSS	high polyreactivity
QVQLVESGGGLVQAGGSLRLSCAASGSTFYWYAMGWYRQAPGKEREFVAAISLGSGSTYYADSVKGRFTISRDNAKNTVYLQMNSLKPEDTAVYYCATVPWYIKVGQKRNDYWGQGTQVTVSS	high polyreactivity
